The chains are these.
B1: CPEB3 Ribozyme (parent)
chain: UAACAGGGGGCCACAGCAGAAGCGUUCACGUCGCAGCCCCUGUCAGAUUCUGGUGAAUCUGCGAAUUCUGCUGUAUAUCUC

The data set covers variants of B1. The data set is described as follows: self-cleavage, relative activity (ratio to wild type); higher = more cleavage; in vitro, sequencing. The gist of the method:
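After error-prone PCR and barcoding, CPEB3 ribozyme mutant libraries were transcribed with T7 RNA polymerase at 37°C for 5 hours, then given 15 min with DNase I before an EDTA stop, and they cleaved during both steps. Reverse transcription with template switching preceded Illumina sequencing. Relative activity divides a variant's cleaved/total read fraction by the unmutated ribozyme's. At least 5 reads were required per variant, and three batches were averaged.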
For the variant UAACAGGGGGCCACAGCAGUAGCGUCCACGUCGCAGCCCCUGUCAGAUUCUGGUGAAUCUGCGAAUUCUGCUGUAUAUCUC [A20U U26C], the self-cleavage was 0.27.
Consider UAACAGGGGGCCACAGCAGAAGCGUUCACGUCGCAGCCCCUGUCAGAUUCUGGUGAAUCCGCGAAUUCUGCUGUAUAUCAC [U60C U80A], for which the self-cleavage was 0.61.
On to UAACAAGGGGCCAUAGCAGAAGCGUUCACGUCGCAGCCCCUGUCAGAUUCUGGUGAAUCUGCGAAUUCUGCUGUAUAUCUC [G6A C14U], for which the self-cleavage worked out at 0.57.
Take UAACAGGGGGCCACAGCAGAAGCGUUCACGUCGCAGCCCCUGUCAGAUUCUGGUGAAUCUGCGAAUUCUGCUGCAUAUCUU [U74C C81U]: the self-cleavage was found to be 1.23.
UAACAGGGGGCCACUGCAGAAGCGUUCACGUCGCAGCCCCUGUCAGAUUCGGGUGAAUCUGCGAAUUCUGCUGUAUAUCUC [A15U U51G]: the self-cleavage turned out to be 0.89.
With UAACAGGGGGCCACAGCAGAAGCGUUCACGUCGCAGCCCCUGUCAGGUUCUGGUGAAUCUGCGAAUUCUACUGUAUAUCUC [A47G G70A] the figure was 0.77; with UAACAGGGGGCCACAGCAGAUGCGUUCACGUCGCAGCCCCUGUCAGAUUCUGGUGGAUCUGCGAAUUCUGCUGUAUAUCUC [A21U A56G], 0.25.
For UAACAGGGGGCCACAGCAGAAGCGUUCACGUCGCAGCCCCUGUCAGAUUCUGGUGUAUCUGCGAAUUCUGAUGUAUAUCUC [A56U C71A], the self-cleavage was 0.26.
With UAACAGGGGGCCACAGCAGAAGCGUUCACGUCGCAGCCCCUGUCAGUUUCUGGUGAAUCUGCGAAUUCUGCUGUAUAUCCC [A47U U80C], the self-cleavage was 0.66.
In the case of UAACAGGGGGCCACAGCAGAAGCGUUCACGUCGCAGCCCCUGUCAGAUUCUGGUGAAUCUGCGAAUUCUGCCGUAUAGCUC [U72C U78G], the self-cleavage was determined as 1.16.
Turning to UAACAGGGGGCCAUAGCAGAAGCGUUCACGUCGCAGCCCCUGUCAGACUCUGGUGAAUCUGCGAAUUCUGCUGUAUAUCUC [C14U U48C], the self-cleavage turned out to be 0.97.
As to UAACAGGGGUCCACAGCAGAAGCGUUCACGUCGCAGCCCCUGUCAGAUUCUGGUGAGUCUGCGAAUUCUGCUGUAUAUCUC [G10U A57G], the self-cleavage amounted to 0.23.
On to UAACAGGGGGCCACAGCAGAAGCGUACACGUCGCAGCCCCUGGCAGAUUCUGGUGAAUCUGCGAAUUCUGCUGUAUAUCUC [U26A U43G], for which the self-cleavage came out at 0.33.
As for UAACAGGGGGCCACAGCAGAAGCGUUCACGUCGCAGCCCCUGUCAGAUUCUGGUGAAUCUGCGAAUUCUGCAGUAUUUCUC [U72A A77U], the self-cleavage worked out at 0.89.
Turning to UAACAGGGGGACUCAGCAGAAGCGUUCACGUCGCAGCCCCUGUCAGAUUCUGGUGAAUCUGCGAAUUCUGCUGUAUAUCUC [C11A A13U], the self-cleavage was found to be 0.34.
On to UAACAGGGGGCCACAGCAGAAGCGUACACGUCGCAGCCCCUGUCAGAUUCUGGUGAAUCUGCGAAUUCUGCUGCAUAUCUC [U26A U74C], for which the self-cleavage worked out at 1.16.
UAACAGGGGGCCACAGCAGAAGCGUUCACGUCGCAGCCCCUGUCAGAUUCUGGUGAACCUGCGAAUUCUGCUGUAUGUCUC [U58C A77G]: the self-cleavage is 0.56.
In the case of UAUCAGGGGGCCACAGCAGAAGCGUUCACGUCUCAGCCCCUGUCAGAUUCUGGUGAAUCUGCGAAUUCUGCUGUAUAUCUC [A3U G33U], the self-cleavage is 0.42.
With UAACCGGGGGCCACAGCAGAAGCGUUCACGUCGCAGCCCCUGUCAGAUUCUGGUGAAACUGCGAAUUCUGCUGUAUAUCUC [A5C U58A] the figure was 0.49.
Take CAACAGGGGGCCACAGCAGAAGCGUUCACGUCGCAGCCCCUGUCAGAUUCUGGUGAGUCUGCGAAUUCUGCUGUAUAUCUC [U1C A57G]: the self-cleavage stood at 0.85.
With UACCAGGGGGCCACAGCAGAAGCGUUCACGUCGCUGCCCCUGUCAGAUUCUGGUGAAUCUGCGAAUUCUGCUGUAUAUCUC [A3C A35U] the figure was 0.81.
In the case of UAACAGGGGGCCACAGCAGAAGCGUUCACGUCGCAGCCCCUGUAAGAUUCUGGUGAAUCUGCGGAUUCUGCUGUAUAUCUC [C44A A64G], the self-cleavage is 0.49.
Take UAACAGGGGGCCACAGCAGAAGCGUUCACGUCGCAGCCCCUGUCAGAUUCUGGUGAAUCUGCGAAUUCUGCUGUAUACCUG [U78C C81G]: the self-cleavage is 1.25.
Turning to UAACAGGGGGCCACAGCAGAAGCGUUCACGUCGCAGCCCCUGUCAGAUUCUGGUGAGUCUGCGAAUUCUGCUGUAUAUAUC [A57G C79A], the self-cleavage was 0.73.
Turning to UAACAGGGGGCUACAGCAGAAGCGUUCACGUCGCAGCCCCCGUCAGAUUCUGGUGAAUCUGCGAAUUCUGCUGUAUAUCUC [C12U U41C], the self-cleavage came out at 1.31.
As to UAACAGGGGGCCACAGCAGAAGCGUUCACGUCGCAGCCCCUGUCAGAUUCUGGUGAAUCUGAAAAUUCUGCUGUAUAUCUC [C62A G63A], the self-cleavage is 0.25.
As for UAACAGGGGGCCACAGCAGGAGCGUUCACGUCGCAGCCCCUGUCAGAUUCUGGUGAAUCUGCGAAUUCUGCUGUAUAACUC [A20G U78A], the self-cleavage came out at 0.79.
Consider UAACAGGGGGCCACAGCAGAGGCGUUCACGUCGCCGCCCCUGUCAGAUUCUGGUGAAUCUGCGAAUUCUGCUGUAUAUCUC [A21G A35C], for which the self-cleavage turned out to be 0.13.
With UAACAGGGGUCCACAGCAGAAGCGUACACGUCGCAGCCCCUGUCAGAUUCUGGUGAAUCUGCGAAUUCUGCUGUAUAUCUC [G10U U26A] the figure was 0.32; with UAUCAGGGGGCCACAGCAGGAGCGUUCACGUCGCAGCCCCUGUCAGAUUCUGGUGAAUCUGCGAAUUCUGCUGUAUAUCUC [A3U A20G], 0.94.
With UAACAGGGGGCCACAGCAGAAGCGUUCGCGCCGCAGCCCCUGUCAGAUUCUGGUGAAUCUGCGAAUUCUGCUGUAUAUCUC [A28G U31C] the figure was 0.48; with UAACAGCGGGCCACAGCAGAAGCGUUCACGUCGCAGCCCCUGUCAGAUUCUGGAGAAUCUGCGAAUUCUGCUGUAUAUCUC [G7C U54A], 0.22.
UAACAGGGGGCCUCAGCAGAAGCGUUCACGUCGCAGCCCCUGUCAGAUUCUGGUGAAUCUGCGAAUUCUGCUGUAUAUUUC [A13U C79U]: the self-cleavage came out at 1.31.
In the case of UAACGGGGGGCCACAGCAGAAGCGUUCACGUCGCAGCCCCUGUCAGAUUCUGGUGAAUCUGCGAAUUCUACUGUAUAUCUC [A5G G70A], the self-cleavage turned out to be 0.32.
